Experimental data taken from US20100330095A1 (U3 PHARMA, published 2010).
Where a chain is given by its changes, count along the chain named.

B1: I 11B7 (antibody, V domains shown)
VH: EVQLQESGPGLVKPSQSLSLTCSVTGYSITSNYWGWIRKFPGDKMEWMGYITYSGSTSYNPSLKSRISITRDTSKNQFFLQLNSVTSEDTATYYCAITTFYYWGQGVMVTVSS
VL: DIQMTQAPSSLPASLGDRVTITCRASQDIGNYLRWFQQKPGKSPRLMISGATNLAAGVPSRFSGSRSGSDYSLTISSLESEDMADYYCLQSKESPWTFGGGTKLELK
notes: rat hybridoma antibody, antagonistic
B2: III 11D5 (antibody, rat IgG2a, V domains shown)
VH: EVQLQESGPGLVKPSQSLSLTCSVTGYSITSNYWGWIRKFPGNKMEWIGHITNSGNTTYNPSLKSRISISRDTSRNQFFLQLNSVTTEDTATYYCAKGAFDYWGQGVMVTVSS
VL: DIQMTQSPSSMSTSLGDRVTITCRASQDIGNYLSWFQQKVGKSPRRMIYGAIKLAVGVPSRFSGSRSGSDYSLTISSLESEDMAIYYCLQYIQFPLTFGSGTKLELK
notes: as for B1
B3: I 10D12 (antibody, V domains shown)
VH: EVQLQESGPGLVKPSQSLSLTCSVTGYSITSNYWGWIRKFPGNKMEWMGYITNSGGTAYNPSLKSRISITRDTSKNQFFLQLNSVIPEDSATYFCSRTPWDWGQGVMVTVSS
VL: B1 VL with T22A, L73R
notes: rat hybridoma antibody, antagonistic; subclass G1

target: T1, human Mer (human, UniProt Q12866 21-999); assay: flow cytometry, transiently transfected HEK293T cells
T1 construct: whole, on cells; Transiently expressed on HEK293T cells; also called hMer
T1 sequence (looked up): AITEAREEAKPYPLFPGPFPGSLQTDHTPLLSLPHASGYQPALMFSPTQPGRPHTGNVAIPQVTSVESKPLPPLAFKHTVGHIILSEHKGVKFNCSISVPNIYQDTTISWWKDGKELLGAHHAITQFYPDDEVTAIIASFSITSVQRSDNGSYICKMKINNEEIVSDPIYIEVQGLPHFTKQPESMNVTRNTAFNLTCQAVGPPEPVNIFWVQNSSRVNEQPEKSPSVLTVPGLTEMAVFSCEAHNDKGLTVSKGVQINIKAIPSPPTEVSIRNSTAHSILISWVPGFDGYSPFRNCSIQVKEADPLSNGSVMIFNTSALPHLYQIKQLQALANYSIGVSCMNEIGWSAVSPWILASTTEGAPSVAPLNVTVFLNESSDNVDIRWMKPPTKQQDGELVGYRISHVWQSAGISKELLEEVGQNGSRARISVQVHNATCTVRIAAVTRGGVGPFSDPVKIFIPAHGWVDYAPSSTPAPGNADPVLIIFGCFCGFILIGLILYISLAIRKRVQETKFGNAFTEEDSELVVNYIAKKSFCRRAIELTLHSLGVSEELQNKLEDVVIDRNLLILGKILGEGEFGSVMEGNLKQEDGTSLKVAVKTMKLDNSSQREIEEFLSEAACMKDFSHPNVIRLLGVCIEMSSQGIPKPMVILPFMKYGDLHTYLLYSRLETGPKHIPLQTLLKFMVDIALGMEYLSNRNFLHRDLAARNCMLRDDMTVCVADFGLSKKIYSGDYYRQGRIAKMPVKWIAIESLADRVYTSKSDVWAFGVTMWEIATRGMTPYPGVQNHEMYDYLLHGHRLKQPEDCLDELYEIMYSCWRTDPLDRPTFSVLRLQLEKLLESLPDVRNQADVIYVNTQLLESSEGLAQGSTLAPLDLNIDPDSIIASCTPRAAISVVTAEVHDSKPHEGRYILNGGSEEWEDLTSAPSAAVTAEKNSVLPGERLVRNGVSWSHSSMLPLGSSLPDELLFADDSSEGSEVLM
Description: FIG. 3. Flow cytometry analysis of cross-reactivity of rat-anti AXL antibodies with mouse and cynomolgus monkey AXL as well as human Mer and Sky. HEK293T fibroblasts were transiently transfected with pcDNA3, pcDNA3-hAXL, pcDNA3 mAXL, pcDNA3-cyAXL, pcDNA3-hMer, or pcDNA3-hSky. […] See text for details.
For FACS analysis, 2×10⁵ cells were harvested with 10 mM EDTA in PBS, washed once with FACS buffer (PBS, 3% FCS, 0.4% azide) and seeded on a 96 well round bottom plate. […] After incubation on ice for 1 h, cells were washed twice with chilled FACS buffer and resuspended with PE-conjugated donkey anti-rat (Jackson) secondary antibody diluted 1:50 in FACS buffer (100 μl/well) or PE-conjugated donkey anti-mouse secondary antibody for control. Protected from light, cells were incubated on ice for 30 min, washed twice with FACS buffer and analyzed using an Epics XL-MCL flow cytometer (Beckman Coulter).

| Binder | binding result |
| --- | --- |
| B1 | no binding (tested: 10 µg/ml) |
| B2 | no binding (tested: 10 µg/ml) |
| B3 | no binding (tested: 10 µg/ml) |

target: T2, human receptor tyrosine kinase AXL transcript variant 1 (human, UniProt P30530 26-894); assay: flow cytometry, NIH3T3-hAXL cells
T2 construct: Overexpressed on RatI-AXL cl.2 and NIH3T3-AXL cl.7 fibroblasts (pLXSN-hAXL); endogenous on human cancer cell lines and HUVEC in the functional assays; also called hAXL; human AXL
T2 sequence: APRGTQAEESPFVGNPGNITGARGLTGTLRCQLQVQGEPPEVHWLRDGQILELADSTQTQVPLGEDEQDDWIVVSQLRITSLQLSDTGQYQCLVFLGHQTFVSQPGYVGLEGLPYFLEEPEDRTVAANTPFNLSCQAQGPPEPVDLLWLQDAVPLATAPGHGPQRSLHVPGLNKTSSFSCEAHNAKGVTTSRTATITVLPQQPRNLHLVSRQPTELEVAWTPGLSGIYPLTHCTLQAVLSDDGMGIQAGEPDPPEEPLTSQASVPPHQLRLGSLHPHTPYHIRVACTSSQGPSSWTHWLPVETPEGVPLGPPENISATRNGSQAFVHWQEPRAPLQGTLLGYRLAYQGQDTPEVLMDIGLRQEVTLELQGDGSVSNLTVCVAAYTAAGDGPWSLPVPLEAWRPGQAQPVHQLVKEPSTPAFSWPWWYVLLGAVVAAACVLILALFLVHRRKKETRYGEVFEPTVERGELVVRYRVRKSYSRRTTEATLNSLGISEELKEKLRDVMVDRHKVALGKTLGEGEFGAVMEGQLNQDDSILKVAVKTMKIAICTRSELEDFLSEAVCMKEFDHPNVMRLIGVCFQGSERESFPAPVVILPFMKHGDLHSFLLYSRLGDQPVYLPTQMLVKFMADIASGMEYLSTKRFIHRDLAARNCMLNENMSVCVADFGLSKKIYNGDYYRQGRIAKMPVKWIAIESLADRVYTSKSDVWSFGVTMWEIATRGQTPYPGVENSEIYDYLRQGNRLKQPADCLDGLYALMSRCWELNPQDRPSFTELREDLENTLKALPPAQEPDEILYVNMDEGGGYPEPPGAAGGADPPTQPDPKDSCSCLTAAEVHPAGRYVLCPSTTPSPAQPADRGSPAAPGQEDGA

| Binder | FACS shift |
| --- | --- |
| B1 | 36.2 |
| B2 | 8.9 |
| B3 | 37.5 |
